Laboratory results as given in patent US12357670B2, “Topical cream-based cosmetic and wound healing formulations and methods of use” (Eir Pharmaceuticals, LLC, priority 2018, dated 2025).

Columns and labels:
[1] = Stability of protein in the cream-based formulation (SDS-PAGE); assay type: physicochemical; conditions: in the cream formulations, stored at room temperature
Experimental: Stability is a major issue in incorporating recombinant proteins as active ingredients into a commercial product. […] Samples were then prepared for analysis and loaded onto an SDS-PAGE gel.
The samples were: Lane 1 contains TRIM Family Member protein that was stored in Phosphate Buffered Saline (PBS) at 4° C. for 13 months. Lane 2-4 are samples of the cream-based formulation containing the TRIM Family Member protein. The arrows indicate the band corresponding to the molecular weight of TRIM Family Member protein in each of the samples in Lanes 2-4. […] This is indicated by the lack of doublet bands in the cream samples. Thus, these formulations for the Emulsifier and Hydrogel are viable systems to maintain the activity of the active ingredient.

[2] = Isoelectric point / net charge of TRIM family member; assay type: physicochemical

## TRIM Family Member protein: TRIM-family member protein, MG53, active ingredient of the cream
[1]
  activity of the active ingredient on storage: remains active for over one year
[2]
  isoelectric point: 6.08
[2]; physiological pH of blood (7.35)
  net charge: negative
